The values below come from article PMC6895045, “Upregulation of tropomyosin alpha-4 chain in patients’ saliva with oral squamous cell carcinoma as demonstrated by Phage display” (Scientific Reports, 2019).

The assay deals with T1, tropomyosin alpha-4 chain (Homo sapiens, UniProt P67936).
T1 construct: Tropomyosin alpha-4 chain, human, UniProtKB P67936; theoretical mass/pI printed as 28,522 kDa/4.67); Denatured protein on a nitrocellulose membrane; identity rests on MALDI-TOF MS of the excised spot; also called TPM4; TMP4; source: endogenous, pooled protein extracts from OSCC tissues, resolved by 2D gel electrophoresis
Kind of assay: far-Western, overlay or dot blot; Western blot of a 2D gel (pH 4-7) of OSCC tissue protein extracts on nitrocellulose, probed with scFv-D09, detected with HRP-conjugated rat anti-HA; the spot was excised from the stained gel and identified by MALDI-TOF MS. The conditions noted are these: one partner purified. In general terms: In western blotting, separated proteins are transferred to a membrane and probed.

T1 sequence (P67936 whole entry): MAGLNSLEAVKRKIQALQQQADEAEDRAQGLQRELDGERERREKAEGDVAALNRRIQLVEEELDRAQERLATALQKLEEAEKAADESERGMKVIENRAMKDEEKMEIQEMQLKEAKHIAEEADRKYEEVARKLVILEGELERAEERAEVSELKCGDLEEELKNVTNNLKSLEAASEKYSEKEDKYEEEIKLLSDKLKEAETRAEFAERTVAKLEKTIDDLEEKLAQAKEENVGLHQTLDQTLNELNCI

B1: scFv-D09 (scFv, V domains shown)
VH: QVQLQESGPGLVKPSQTLSLTCAVSGGSISSSNWWSWVRQPPGKGLEWIGEIYHSGSTNYNPSLKSRVTISVDKSKNQFSLKLSSVTAADTAVYYCARQSFPGRAFDIWGQGTMVTVSS
VL: EIVMTQSPATLSVSPGERATLSCRASQSVSSNLAWYQQKPGQAPRLLIYGASTRATGIPARFSGSGSGTEFTLTISSLQSEDFAVYYCQHYNNWLWTFGQGTKVEIK
notes: also called scFv D09 antibody; scFv-D09 clone
With B1, the binding result is “binds”.
